Measured values: patent US20210221899A1 (published 2021)
Numbering of substitutions follows the chain as printed.

B1: can48L2VH_F113A (antibody, V domains shown)
VH: EVQLVESGGDLVKPGGSLRLSCVASGFTFSTYGINWVRQAPGKGLQWVAYISSGGSSTYYADPVKGRFTISRDDAKNMLYLQMNSLRAEDTAIYYCAGSRYTYAYGGGYEFHAWGQGTLVTVSS
VL: QAVLNQPASVSGALGQKVTISCSGSTMDIDIFGVSWYQQLPGKAPKLLVDSDGDRPSGIPDRFSGSRSGNSGTLTITGLQAEDEADYHCQSGDSTLGALAIFGGGTHVTVL
notes: CDR scanning mutant of ZTS-842 (48L2)
B2: can48L2VL_D28A (antibody, V domains shown)
VH: B1 VH with A113F
VL: B1 VL with D28A
notes: as for B1
B3: can48L2VH_S52A (antibody, V domains shown)
VH: B1 VH with S52A, A113F
VL: B1 VL
notes: as for B1
B4: can48L2VH_S57A (antibody, V domains shown)
VH: B1 VH with S57A, A113F
VL: B1 VL
notes: as for B1
B5: can48L2VL_A100L (antibody, V domains shown)
VH: B1 VH with A113F
VL: B1 VL with A100L
notes: as for B1
B6: can48L2VH_I51A (antibody, V domains shown)
VH: B1 VH with I51A, A113F
VL: B1 VL
notes: as for B1
B7: can48L2VH_G55A (antibody, V domains shown)
VH: B1 VH with G55A, A113F
VL: B1 VL
notes: as for B1
B8: can48L2VH_S53A (antibody, V domains shown)
VH: B1 VH with S53A, A113F
VL: B1 VL
notes: as for B1
B9: can48L2VH_T31A (antibody, V domains shown)
VH: B1 VH with T31A, A113F
VL: B1 VL
notes: as for B1
B10: can48L2VH_T58A (antibody, V domains shown)
VH: B1 VH with T58A, A113F
VL: B1 VL
notes: as for B1
B11: can48L2VL_A98L (antibody, V domains shown)
VH: B1 VH with A113F
VL: B1 VL with A98L
notes: as for B1
B12: can48L2VH_S56A (antibody, V domains shown)
VH: B1 VH with S56A, A113F
VL: B1 VL
notes: as for B1
B13: can48L2VH_G54A (antibody, V domains shown)
VH: B1 VH with G54A, A113F
VL: B1 VL
notes: as for B1
B14: can48L2VH_H112A (antibody, V domains shown)
VH: B1 VH with H112A, A113F
VL: B1 VL
notes: as for B1
B15: can9L12VL_I29A (antibody, V domains shown)
VH: EVQLVESGGDLVKPGGSLRLSCVASGFTFSSHGMHWVRQSPGKGLQWVAVINSGGSSTYYTDAVKGRFTISRDNAKNTVYLQMNSLRAEDTAMYYCAKESVGGWEQLVGPHFDYWGQGTLVIVSS
VL: QSVLTQPTSVSGSLGQRVTISCSGSTNNAGILGASWYQLFPGKAPKLLVYGNGNRPSGVPDRFSGADSGDSVTLTITGLQAEDEADYYCQSFDTTLGAHVFGGGTHLTVL
B16: can9L12VL_N52A (antibody, V domains shown)
VH: B15 VH
VL: B15 VL with A29I, N52A
B17: can9L12VL_T95A (antibody, V domains shown)
VH: B15 VH
VL: B15 VL with A29I, T95A
B18: can9L12VL_V100A (antibody, V domains shown)
VH: B15 VH
VL: B15 VL with A29I, V100A
B19: can9L12VL_L32A (antibody, V domains shown)
VH: B15 VH
VL: B15 VL with A29I, L32A
B20: can9L12VL_L96A (antibody, V domains shown)
VH: B15 VH
VL: B15 VL with A29I, L96A
B21: can9L12VL_I31A (antibody, V domains shown)
VH: B15 VH
VL: B15 VL with A29I, I31A
B22: can9L12VL_N28A (antibody, V domains shown)
VH: B15 VH
VL: B15 VL with N28A, A29I
B23: can9L12VL_T94A (antibody, V domains shown)
VH: B15 VH
VL: B15 VL with A29I, T94A
B24: can9L12VL_S91A (antibody, V domains shown)
VH: B15 VH
VL: B15 VL with A29I, S91A
B25: can9L12VL_T26A (antibody, V domains shown)
VH: B15 VH
VL: B15 VL with T26A, A29I
B26: can9L12VL_N27A (antibody, V domains shown)
VH: B15 VH
VL: B15 VL with N27A, A29I
B27: can9L12VL_O90A (antibody, V domains shown)
VH: B15 VH
VL: B15 VL with A29I, Q90A

Molecular target: T1, rat NGF (rat, UniProt P25427 122-241)
T1 construct: also called rN
Assay: SPR (Biacore T200), 100 nM mAb on NGF chip, similarity to parent mAb
Description: (§1) The region of an antibody responsible for antigen recognition represents the paratope. A paratope is created by a combination of amino acids in the complementarity determining regions (CDRs) of both the heavy and light chain variable regions. The binding between antibody and antigen is often mediated by side chains of CDR residues with side chains or carbohydrate moieties of the antigen. To help define critical side chains involved in antibody recognition alanine scanning mutagenesis was performed on each CDR residue in both the heavy and light chain, the technique as described by Cunningham and Wells (1989) Science, Vol. 244, Issue 4908, pp. 1081-1085. These mutants were then individually tested for the ability to NGF using the Biacore. […] Values were then compared to the wild type antibodies and are represented in the tables as a percent of wild type binding. The data presented in Tables 4 and 5 below are shown as a “percent similarity score” compared to wild type.
(§2) The mean response unit of four replicates of the parent mAb+/−3 standard deviations was used to generate parameters to define a threshold of response units comprising both the on- and off-rates antibody binding. The percentage of data points for each mutant fell within this threshold was then used to define a “% similarity score”. […] Results from substitution of alanine at each CDR position

T1 sequence (P25427 122-241 limits assumed): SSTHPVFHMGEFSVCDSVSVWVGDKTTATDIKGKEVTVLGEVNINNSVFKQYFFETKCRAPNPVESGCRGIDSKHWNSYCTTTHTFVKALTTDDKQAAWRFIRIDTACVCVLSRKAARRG

Row | Binder | Percent Similarity Score (KD on rN)
1 | B1 | 32.2%
2 | B2 | 97.7%
3 | B3 | 99.8%
4 | B4 | 99.7%
5 | B5 | 98.3%
6 | B6 | 37.2%
7 | B7 | 99.7%
8 | B8 | 99.4%
9 | B9 | 99.9%
10 | B10 | 99.7%
11 | B11 | 98.4%
12 | B12 | 99.8%
13 | B13 | 99.3%
14 | B14 | 98.5%
15 | B15 | 1.6%
16 | B16 | 100%
17 | B17 | 99.9%
18 | B18 | 20.2%
19 | B19 | 1.7%
20 | B20 | 37%
21 | B21 | 12.6%
22 | B22 | 2.5%
23 | B23 | 40%
24 | B24 | 14.5%
25 | B25 | 99.2%
26 | B26 | 99.9%
27 | B27 | 24.2%

Molecular target: T2, human NGF (human, UniProt P01138 122-241)
T2 construct: also called human Nerve Growth Factor; hN
T2 chain: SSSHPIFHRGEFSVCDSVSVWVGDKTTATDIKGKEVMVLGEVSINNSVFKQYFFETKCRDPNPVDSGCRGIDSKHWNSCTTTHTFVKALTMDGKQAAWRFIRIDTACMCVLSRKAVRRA
Assay: as above
Description: as §1, §2

Row | Binder | Percent Similarity Score (KD on hN)
28 | B1 | 98.5%
29 | B2 | 99.6%
30 | B3 | 100%
31 | B4 | 100%
32 | B5 | 99.9%
33 | B6 | 81.8%
34 | B7 | 100%
35 | B8 | 100%
36 | B9 | 99.9%
37 | B10 | 99.9%
38 | B11 | 99.8%
39 | B12 | 99.9%
40 | B13 | 100%
41 | B14 | 51.2%
42 | B15 | 1.5%
43 | B16 | 100%
44 | B17 | 100%
45 | B18 | 15.7%
46 | B19 | 1.5%
47 | B20 | 34.2%
48 | B21 | 11.4%
49 | B22 | 2.1%
50 | B23 | 52.5%
51 | B24 | 11.6%
52 | B25 | 100%
53 | B26 | 100%
54 | B27 | 19.3%

Molecular target: T3, canine NGF (canine, UniProt Q29074 110-229 (pig entry), limits assumed)
T3 construct: The protein was secreted from CHO cells and purified; also called cNGF; canine β-NGF
T3 chain: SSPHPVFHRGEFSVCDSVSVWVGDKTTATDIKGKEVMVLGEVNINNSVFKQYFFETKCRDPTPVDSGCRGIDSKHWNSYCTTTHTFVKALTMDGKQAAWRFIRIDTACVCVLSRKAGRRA
Assay: as above
Description: as §1, §2

Row | Binder | Percent Similarity Score (KD on cN)
55 | B1 | 33.7%
56 | B2 | 97%
57 | B3 | 99.4%
58 | B4 | 98.4%
59 | B5 | 97.8%
60 | B6 | 24.2%
61 | B7 | 99.3%
62 | B8 | 97.8%
63 | B9 | 99.6%
64 | B10 | 99.1%
65 | B11 | 97.3%
66 | B12 | 99.3%
67 | B13 | 98.1%
68 | B14 | 40.3%
69 | B15 | 4.4%
70 | B16 | 100%
71 | B17 | 100%
72 | B18 | 58.2%
73 | B19 | 4.4%
74 | B20 | 97%
75 | B21 | 41.2%
76 | B22 | 6.6%
77 | B23 | 100%
78 | B24 | 39.3%
79 | B25 | 100%
80 | B26 | 100%
81 | B27 | 79.2%
